# Experimental data taken from patent US20090138983A1 (POSTECH FOUNDATION, published 2009).
# T1: T7-tagged AtBG1 (Arabidopsis thaliana β-glucosidase 1) (Arabidopsis thaliana, UniProt Q9SE50 27-528)
# T1 construct: Co-expressed with AtBG1:HA in protoplasts; pulled down with anti-T7 antibody; also called AtBG1:T7; not shown: T7 tag
# T1 sequence (looked up): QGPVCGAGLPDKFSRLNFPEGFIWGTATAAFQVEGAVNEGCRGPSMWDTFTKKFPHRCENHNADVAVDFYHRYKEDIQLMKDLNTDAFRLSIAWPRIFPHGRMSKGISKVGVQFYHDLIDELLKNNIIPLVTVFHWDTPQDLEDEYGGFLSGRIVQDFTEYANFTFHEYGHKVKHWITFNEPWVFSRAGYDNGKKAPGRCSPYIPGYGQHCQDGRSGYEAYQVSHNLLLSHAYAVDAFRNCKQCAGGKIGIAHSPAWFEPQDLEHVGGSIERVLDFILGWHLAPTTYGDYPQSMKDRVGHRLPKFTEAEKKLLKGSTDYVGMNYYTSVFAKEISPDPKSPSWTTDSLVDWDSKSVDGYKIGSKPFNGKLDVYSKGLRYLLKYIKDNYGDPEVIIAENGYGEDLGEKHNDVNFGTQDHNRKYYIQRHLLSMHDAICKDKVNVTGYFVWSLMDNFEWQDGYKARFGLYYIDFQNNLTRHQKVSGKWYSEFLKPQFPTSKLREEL
# B1: HA-tagged AtBG1 (Arabidopsis thaliana β-glucosidase 1) (enzyme, UniProt Q9SE50 27-528, looked up)
# chain: T1 sequence (looked up)
# notes: Expressed in Arabidopsis protoplasts or in 'rescued atbg1' plants and tested in protein extracts; also called AtBG1:HA; AtBG1::HA; not shown: virus HA (hemagglutinin) tag
# Assays:
# [1] = target: T1, T7-tagged AtBG1 (Arabidopsis thaliana …); assay: co-immunoprecipitation with anti-T7 antibody, anti-HA Western blot, densitometry
# Protocol: The present inventors also investigated the mechanism by which dehydration stress activates AtBG1. […] Thus, the present inventors investigated whether the mechanism by which dehydration stress activates AtBG1 is attributed to AtBG1 polymerization. Protein extracts were prepared from protoplasts co-transformed with two differently tagged forms of AtBG1, AtBG1:HA and AtBG1:T7, according to the same method as described in the above Example, and used for co-immunoprecipitation with anti-T7 antibody. Immunoprecipitates were analyzed by Western blotting using anti-HA antibody to investigate the interaction between AtBG1 molecules. As a result, HA-tagged AtBG1 was detected in the precipitate immunoprecipitated with T7-antibody (FIG. 35). Furthermore, the amount of HA-tagged AtBG1 in the precipitate was increased by approximately 3-fold upon treatment of protoplasts with 10% PEG 8000, a chemical that induces dehydration stress, for 12 hours (measured by densitometery software, FIG. 35). Therefore, the present inventors concluded that AtBG1 undergoes homomeric interactions, which are enhanced under conditions of dehydration stress.
binder,measurement,setting,value
B1,ABA-GE hydrolyzing activity (ABA content by ELISA) of high against low molecular weight forms of AtBG1 after gel filtration and anti-HA immunoprecipitation,Q9SE50,High molecular weight forms exhibited 4-fold higher AtBG1 activity
same,fold increase of the co-precipitated amount upon 10% PEG 8000 (12 hours) against untreated protoplasts,[1],~3 fold
